The source of these data is publication PMC10195009.

This assay deals with afucosylated IgG-specific nanobody X0. The experiment in a line: SPR. The following applies: parent: est. 0; read off a plot.
With afucosylated IgG1 Fc H268A, the other: log2 fold change in KD was -1.5 log2.

Consider afucosylated IgG1 Fc I332A, for which the other: log2 fold change in KD is 0.08 log2.

As for afucosylated IgG1 Fc P329A, the other: log2 fold change in KD amounted to 0.03 log2.

Take afucosylated IgG1 Fc E269A: the other: log2 fold change in KD came out at 0.95 log2.

Turning to afucosylated IgG1 Fc L328A, the other: log2 fold change in KD is -0.15 log2.
